For this assay, the target named is T1, JNKK2 (Homo sapiens, UniProt O14733, Q133P/Q94H).
T1 construct: plasmids encoding full-length (FL) human ASK1, MEKK4, JNKK1, and JNKK2; made in house; host or cells: TNT coupled reticulocyte lysate (Promega), in vitro transcription/translation from pBS
T1 sequence (O14733 1-401 Q94H/Q133P limits assumed): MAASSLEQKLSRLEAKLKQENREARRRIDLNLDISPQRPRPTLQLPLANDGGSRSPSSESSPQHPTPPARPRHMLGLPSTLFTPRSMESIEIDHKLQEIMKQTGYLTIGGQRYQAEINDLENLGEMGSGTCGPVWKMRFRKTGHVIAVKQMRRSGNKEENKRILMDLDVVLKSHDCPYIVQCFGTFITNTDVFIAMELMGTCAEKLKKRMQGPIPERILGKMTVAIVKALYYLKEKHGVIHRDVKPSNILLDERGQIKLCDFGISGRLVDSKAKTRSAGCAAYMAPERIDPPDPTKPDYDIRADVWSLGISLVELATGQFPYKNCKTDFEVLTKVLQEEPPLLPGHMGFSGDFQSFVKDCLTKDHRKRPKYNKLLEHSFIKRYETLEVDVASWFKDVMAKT
The assay is described as follows: GST pull-down, GST-Gadd45β beads with in vitro translated 35S-labeled JNKK2. The assay is classed as binding. As for the experimental part: To confirm the above interactions, in vitro, GST pull-down experiments were performed. pBluescript (pBS) plasmids encoding full-length (FL) human ASK1, MEKK4, JNKK1, and JNKK2, or polypeptides derived from the amino- or carboxy-terminal portions of ASK1 (i.e. N-ASK1, spanning from amino acids 1 to 756, and C-ASK1, spanning from amino acids 648 to 1375) were transcribed and translated in vitro using the TNT coupled retyculocyte lysate system (Promega) in the presence of ^35S-methionine. 5 μl of each translation mix were incubated, in vitro, with sepharose-4B beads that had been coated with either purified glutathione-S-transferase (GST) polypeptides or GST-Gadd45β proteins. The latter proteins contained FL murine Gadd45β directly fused to GST. Binding assays were performed according to standard procedures, and ^35S-labeled proteins that bound to beads, as well as 2 μl of each in vitro translation mix (input), were then resolved by SDS polyacrylamide gel electrophoresis. Asterisks indicate the intact translated products. […] Thus, GST pull-down experiments confirmed the strong interaction between Gadd45β and JNKK2 observed in vivo, as well as the weaker interactions of Gadd45β with other kinases in the JNK pathway. These assays also uncovered a weak association between Gadd45β and JNKK1. […]

B1: GST-Gadd45β: full-length murine Gadd45β directly fused to GST, purified from E. coli (protein)
chain: MTLEELVASDNAVQKMQAVTAAVEQLLVAAQRQDRLTVGVYEAAKLMNVDPDSVVLCLLAIDEEEEDDIALQIHFTLIQSFCCDNDIDIVRVSGMQRLAQLLGEPAETLGTTEARDLHCLLVTNCHTDSWKSQGLVEVASYCEESRGNNQWVPYISLEER
modifications: left off: a dimerising Fc or GST
notes: full-length murine Gadd45β directly fused to GST, purified from E. coli
Consider B1, for which the “association with FL-JNKK2” value is listed as “strongly associated”.

Values taken from patent US7326418B2, “Identification of novel factors that block programmed cell death or apoptosis by targeting JNK” (University of Chicago, priority 2001, dated 2008).
